Experimental data: article PMC4258549 (Journal of immunology (Baltimore, Md. : 1950), 2014)

Assays:
[1] = target: T1, biotinylated C4b (human, biotin through Maleimide-PEG2-Biotin (residue not stated)); assay: AlphaScreen or HTRF
[2] = target: T1, biotinylated C4b; assay: SPR

Binder | fold weaker binding than Eap [1] | Kd [1] | IC50 [2]
Eap12 (Eap fragment of domains 1 and 2) (domain or fragment) GHSNIQIPYTITVNGTSQNILSSLTFNKNQNISYKDIENKVKSVLYFNRGISDIDLRLSKQAEYTVHFKNGTKRVIDLKSGIYTADLINTSDIKAISVNVDTKKQPKDKAKANVQVPYTITVNGTSQNILSNLTFNKNQNISYKDLEGKVKSVLESNRGITDVDLRLSKQAKYTVNFKNGTKKVIDLKSGIYTANLINSSDIKSININVDTKKHIENKAKR | ~100 fold | – | –
Eap23 (Eap fragment of domains 2 and 3) (domain or fragment) ANVQVPYTITVNGTSQNILSNLTFNKNQNISYKDLEGKVKSVLESNRGITDVDLRLSKQAKYTVNFKNGTKKVIDLKSGIYTANLINSSDIKSININVDTKKHIENKAKRNYQVPYSINLNGTSTNILSNLSFSNKPWTNYKNLTSQIKSVLKHDRGISEQDLKYAKKAYYTVYFKNGGKRILQLNSKNYTANLVHAKDVKRIEITVKTGTKAKADRYV | – | 293 ± 38 nM | –
Eap34 (Eap fragment of domains 3 and 4) (domain or fragment) NYQVPYSINLNGTSTNILSNLSFSNKPWTNYKNLTSQIKSVLKHDRGISEQDLKYAKKAYYTVYFKNGGKRILQLNSKNYTANLVHAKDVKRIEITVKTGTKAKADRYVPYTIAVNGTSTPILSKLKISNKQLISYKYLNDKVKSVLKSERGISDLDLKFAKQAKYTVYFKNGKKQVVNLKSDIFTPNLFSAKDIKKIDIDVKQYTKSKKK | – | 525 ± 65 nM | ~870 nM
